Data: patent US20240352439, “POLYPEPTIDES AND METHODS FOR MODIFYING NUCLEIC ACIDS” (THE UNIVERSITY OF CHICAGO, published 2024)

Tests used:
Experiment in all cases: kapp, same conditions
[1] = molecular target: TadA8r (TadA-RA5.2) (Escherichia coli); settings: tags: 6xHis-MBP removed by TEV; label: 5'-FAM
Excerpt: (§1) We compared adenine deamination efficiency of TadA8r in ssDNA with TadA8.20 and TadA8e. Maltose binding protein (MBP) fused TadA8r, TadA8.20, and TadA8e were purified through immobilized metal affinity chromatography. A Tobacco Etch Virus (TEV) protease cutting site was installed between MBP and TadA*. After TEV proteinase treatment, TadA8r, TadA8.20, and TadA8e were purified by immobilized metal affinity chromatography, ion-exchange chromatography, and size-exclusion chromatography. DNA deamination assays were carried out using […] ssDNA oligos under single-turnover conditions. A-to-I conversion was measured to determine the apparent first-order deamination rate constant (kₐₚₚ) (FIG. 2a). Both TadA8.20 and TadA8e preferred TA over GA (kₐₚₚ=0.07 min⁻¹ and 0.08 min⁻¹ for TadA 8.20 on GA and TA probes, respectively; kₐₚₚ=0.01 min⁻¹ and 0.02 min⁻¹ for TadA8e on GA and TA probes, respectively). The kₐₚₚ for TadA8r is much higher—0.55 min⁻¹ on the GA probe and 0.39 min⁻¹, on the TA probe).
(§2) The single turnover DNA deamination reactions containing 4 uM TadA variants in deamination buffer (50 mM Tris, 25 mM KCl, 2.5 mM MgCl₂, 2 mM dithiothreitol, and 10% (v/v) glycerol; pH 7.5) and 5′ Fluorescein labeled ssDNA (IDT) (Supplementary Table 6) to a final concentration of 200 nM. All reactions were incubated at 37° C. At various time points (0, 1, 5, 10, 20, 60, 180 mins), 10 uL reaction mixture were aliquoted and quenched by adding 10 ul of hot water and incubating at 95° C. for 10 min. Reaction mixtures were supplied with 100 ug/ml Proteinase K (Fisher scientific) and incubated at 55° C. for 3 h followed by inactivating at 85° C. for 30 mins and 95° C. for 15 mins. To detected adenosine deamination, reaction mixture was incubated with 10 unit of E. coli EndonucleaseV in 1×NEB4 buffer at 37° C. for 1 h. After cleavage by EndoV, samples were mixed with 2-fold PAGE gel loading buffer (95% formamide, 10 mM EDTA, 0.025% SDS), heated at 95° C. for 5 min, resolved on 15% (v/v) denaturing polyacrylamide gel. Uncleavage substrate and cleavage product were visualized by ChemiDoc XRS+(Bio-rad) under fluorescein channel. DNA band quantification were analyzed using ImageJ Software. Curve fitting was done in GraphPad.

[2] = molecular target: TadA8e (Escherichia coli); settings: tags: MBP removed by TEV; label: 5'-FAM
Excerpt: as §1, §2

[3] = molecular target: TadA8.20 (Escherichia coli, UniProt P68398 SEQ:1-167); settings: tags: MBP removed by TEV; label: 5'-FAM
Excerpt: as §1, §2

Row | Binder | activity [1] | activity [2] | activity [3]
1 | TGGGTTGGTTATCGTTTGGTGG (ssDNA) [TA probe] | 0.39 min⁻¹ | 0.02 min⁻¹ | 0.08 min⁻¹
2 | TGGGTTGGTGATCGTTTGGTGG (ssDNA) [GA probe] | – | 0.01 min⁻¹ | 0.07 min⁻¹
